Experiment [1] deals with PDPN ectodomain, monomeric, Avi-tagged, site-specifically biotinylated (Fc tag removed) (human) (UniProt Q86YL7).
The target of experiment [2] is CD177 recombinant ectodomain, Fc-tagged (human) (UniProt Q8N6Q3). Kind of experiment: SPR; CLEC-2 or CD177 ectodomains immobilised by amine coupling, 300-400 resonance units; Avi-tagged monomeric PDPN ectodomain as analyte; equilibrium fit for CD177, Langmuir model for CLEC-2.
The target in experiment [3] is T1, CLEC-2 recombinant ectodomain, Fc-tagged (human, UniProt Q9P126 55-229).
T1 construct: C-type lectin receptor CLEC-2 (CLEC1B), human, ectodomain; The methods describe a general pRK5 vector with a C-terminal human Fc tag; CLEC-2 is a type II membrane protein, so the real end of the Fc may differ; also called Clec1b; recombinant human CLEC-2
The experiment is described as above. Particulars: both partners purified.

In experiment [4] the target is T1, CLEC-2 recombinant ectodomain, Fc-tagged. Kind of experiment: SPR; CLEC-2 or CD177 ectodomains immobilised by amine coupling on GLC (Proteon XPR36) or CM5 (Biacore 3000) chips; Avi-Fc-tagged PDPN as soluble analyte at the indicated concentrations; PBS with 0.01% Tween-20 (Proteon) or HBS-P pH 7.4 (Biacore). Particulars: both partners purified.

This is an account of results in paper PMC8654239, “The neutrophil protein CD177 is a novel PDPN receptor that regulates human cancer-associated fibroblast physiology” (PLoS ONE, 2021).

T1 sequence (Q9P126 55-229): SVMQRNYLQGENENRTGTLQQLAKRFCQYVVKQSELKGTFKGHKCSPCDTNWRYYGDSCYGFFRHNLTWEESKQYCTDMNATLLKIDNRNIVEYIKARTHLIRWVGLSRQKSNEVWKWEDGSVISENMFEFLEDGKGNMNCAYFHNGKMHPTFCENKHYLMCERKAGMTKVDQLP
Chain of CD177 recombinant ectodomain, Fc-tagged (human) (Q8N6Q3 22-408): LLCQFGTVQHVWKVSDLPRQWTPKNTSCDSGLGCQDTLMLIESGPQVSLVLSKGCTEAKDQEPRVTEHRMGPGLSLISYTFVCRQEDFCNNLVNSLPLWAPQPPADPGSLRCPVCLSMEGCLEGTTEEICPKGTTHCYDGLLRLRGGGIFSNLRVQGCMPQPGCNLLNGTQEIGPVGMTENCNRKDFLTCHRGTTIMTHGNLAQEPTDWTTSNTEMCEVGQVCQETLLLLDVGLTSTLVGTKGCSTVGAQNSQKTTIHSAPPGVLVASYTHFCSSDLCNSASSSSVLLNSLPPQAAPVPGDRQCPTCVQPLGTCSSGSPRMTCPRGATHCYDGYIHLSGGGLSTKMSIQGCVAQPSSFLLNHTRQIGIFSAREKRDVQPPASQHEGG

As to “CD177 recombinant ectodomain, Fc-tagged (from UniProt Q8N6Q3 22-408) (Fc fusion)”, in experiment [1], the inhibition of CAF contractility (gel contraction assay) by recombinant CD177 was 20%.

B1: PDPN ectodomain, monomeric, Avi-tagged, site-specifically biotinylated (Fc tag removed) (domain or fragment, human, UniProt Q86YL7 23-131, looked up)
chain: ASTGQPEDDTETTGLEGGVAMPGAEDDVVTPGTSEDRYKSGLTTLVATSVNSVTGIRIEDLPTSESTVHAQEQSPSATASNVATSHSTEKVDGDTQTTVEKDGLSTVTL
modifications: biotin on the Avi tag (site-specific, in vitro, BirA)
notes: podoplanin (PDPN), human, ectodomain; the methods describe biotinylation of the Avi-tagged product after removal of the Fc; Also used here as the PDPN of the functional rows (there PDPN is endogenous on fibroblasts); also called podoplanin; gp38; source: mammalian cells, purified; biotinylated in vitro with BirA; not shown: Fc (human IgG1), C-terminal, cleaved
In the case of B1, the Kd in experiment [2] came out at 3300 nM; in experiment [3] it was 210 ± 0.3 nM.

B2: PDPN ectodomain, Avi-Fc-tagged (Fc fusion, human, UniProt Q86YL7 23-131, looked up)
chain: ASTGQPEDDTETTGLEGGVAMPGAEDDVVTPGTSEDRYKSGLTTLVATSVNSVTGIRIEDLPTSESTVHAQEQSPSATASNVATSHSTEKVDGDTQTTVEKDGLSTVTL
notes: podoplanin (PDPN), human, ectodomain; pRK5 vector with C-terminal human IgG1 Fc; also called Avi-Fc-tagged PDPN; AviFc-tagged PDPN; source: mammalian cells, purified; not shown: Fc (human IgG1), C-terminal, kept
Regarding B2, the binding result in experiment [4] is given as “binds”.
